# From article PMC8993412 (Journal of Molecular Biology, 2022)
# Target: SARS-CoV-2 nucleocapsid (N) protein, full-length (recombinant) (SARS-CoV-2, reference, UniProt P0DTC9)
# Assay: ELISA
binder,measurement,value
"IgG 16485 (anti-N) (antibody, V domains shown) VH: EVQLVESGGGLVQPGGSLRLSCAASGFNIYSSSIHWVRQAPGKGLEWVAYISSYSGYTSYADSVKGRFTISADTSKNTAYLQMNSLRAEDTAVYYCARVPWYYAYSFGFFASFGGMDYWGQGTLVTVSS VL: DIQMTQSPSSLSASVGDRVTITCRASQSVSSAVAWYQQKPGKAPKLLIYSASSLYSGVPSRFSGSRSGTDFTLTISSLQPEDFATYYCQQYSGYHFFPITFGQGTKVEIK",EC50,19 nM
